In article PMC1802081 (BMC Structural Biology, 2007):
Where a chain is given by its changes, count along the chain named.

T1: activin A (Sf9 cells) (UniProt P08476 311-426, biotin (biotinylated for the biosensor; site not stated))
T1 construct: activin A (dimer of inhibin beta A chains), mature ligand; also called Act-A; source: Sf9 cells [59]
T1 sequence (looked up): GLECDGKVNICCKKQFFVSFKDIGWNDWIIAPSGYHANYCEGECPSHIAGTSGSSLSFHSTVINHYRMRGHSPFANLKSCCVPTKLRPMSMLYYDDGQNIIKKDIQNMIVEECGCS

B1: ActR-IIB receptor ectodomain (ActR-IIBECD) (receptor, UniProt P27040 19-137, looked up)
chain: SGRGEAETRECIYYNANWELERTNQSGLERCEGEQDKRLHCYASWRNSSGTIELVKKGCWLDDFNCYDRQECVATEENPQVYFCCCEGNFCNERFTHLPEPGGPEVTYEPPPTAPTLLT
notes: mouse is recalled from the PDB entry 2H62 and should be checked there; also called activin type IIB receptor ectodomain; source: E. coli OrigamiB (DE3), purified (Ni2+-IMAC, thrombin cleavage, anion exchange, reversed phase HPLC)
B2: ActR-IIBECD Y42A (receptor, UniProt P27040 19-137, looked up)
chain: B1 chain with Y42A
notes: source: E. coli OrigamiB (DE3), purified (Ni2+-IMAC, thrombin cleavage, anion exchange, RP-HPLC)
B3: ActR-IIBECD R46A (receptor, UniProt P27040 19-137, looked up)
chain: B1 chain with R46A
notes: as for B2
B4: ActR-IIBECD L61A (receptor, UniProt P27040 19-137, looked up)
chain: B1 chain with L61A
notes: also called ActR-IIBL61A; source: E. coli OrigamiB (DE3), purified (Ni2+-IMAC, thrombin cleavage, anion exchange, RP-HPLC)
B5: ActR-IIBECD L61P (receptor, UniProt P27040 19-137, looked up)
chain: B1 chain with L61P
notes: also called ActR-IIBL61P; source: E. coli OrigamiB (DE3), purified (Ni2+-IMAC, thrombin cleavage, anion exchange, RP-HPLC)
B6: ActR-IIBECD K37A (receptor, UniProt P27040 19-137, looked up)
chain: B1 chain with K37A
notes: as for B2
B7: ActR-IIBECD E34A (receptor, UniProt P27040 19-137, looked up)
chain: B1 chain with E34A
notes: as for B2
B8: ActR-IIBECD D63A (receptor, UniProt P27040 19-137, looked up)
chain: B1 chain with D63A
notes: as for B2
B9: ActR-IIBECD Q80A (receptor, UniProt P27040 19-137, looked up)
chain: B1 chain with Q80A
notes: as for B2
B10: ActR-IIBECD K56A (receptor, UniProt P27040 19-137, looked up)
chain: B1 chain with K56A
notes: as for B2
B11: BMP-7 (CHO cells, R&D Systems) (ligand, UniProt P18075 293-431, looked up)
chain: STGSKQRSQNRSKTPKNQEALRMANVAENSSSDQRQACKKHELYVSFRDLGWQDWIIAPEGYAAYYCEGECAFPLNSYMNATNHAIVQTLVHFINPETVPKPCCAPTQLNAISVLYFDDSSNVILKKYRNMVVRACGCH
modifications: biotin (biotinylated for the biosensor; site not stated)
notes: bone morphogenetic protein 7 (BMP-7), mature ligand; source: bought: R&D Systems (CHO cells)
B12: BMPR-II receptor ectodomain (receptor, UniProt Q13873 27-150, looked up)
chain: SQNQERLCAFKDPYQQDLGIGESRISHENGTILCSKGSTCYGLWEKSKGDINLVKQGCWSHIGDPQECHYEECVVTTTPPSIQNGTYRFCCCSTDLCNVNFTENFPPPDTTPLSPPHSFNRDET
notes: BMP type II receptor (BMPR-II), extracellular domain; also called BMPR-IIECD; source: expressed and purified as described earlier [28]

The binders below were run against T2, wildtype BMP-2 (bone morphogenetic protein 2), E. coli derived (UniProt P12643 283-396) (assay: SEC; ternary complex of wildtype BMP-2 as isolated from gelfiltration (HBS700 buffer); its composition by reversed phase HPLC, peak areas divided by the extinction coefficients). Conditions: both partners purified.
T2 construct: dimeric ligand; also called wtBMP-2; BMP-2 dimer

| stoichiometry N | Binder |
| --- | --- |
| 1.97 ActR-IIBECD per 0.98 BMP-2 dimer | B1 |

These binders were tested against T3, binary complex BMP-2:BMPR-IAECD (purified) (UniProt P12643 283-396; P36894 24-152) (assay: ITC; VP-ITC, 298 K (25 C), HBS500 buffer (10 mM HEPES, 500 mM NaCl, pH 7.4); 150 uM ActR-IIBECD in the syringe, 7.5 uM binary complex BMP-2:BMPR-IAECD in the cell; one-site-binding model). Conditions: both partners purified.
T3 construct: as the chain of Dm1; as the chain of Dm2; Complex formed beforehand and placed in the calorimeter cell at 7.5 uM; also called BMP-2:BMPR-IAECD complex; binary complex of BMP-2 and BMPR-IAECD; copies: 2 + 2

| stoichiometry N | Binder |
| --- | --- |
| 2 | B1 |

What follows are binders tested against T2, wildtype BMP-2 (bone morphogenetic …) (assay: SEC; ternary complex of wildtype BMP-2 as isolated from gelfiltration (HBS700 buffer); its composition by analytical SDS-PAGE, band intensities compared with standard mixtures of defined molar ratios). Conditions: both partners purified.

| stoichiometry N | Binder |
| --- | --- |
| 2.1 ActR-IIBECD per BMP-2 dimer | B1 |

The binders below were run against T4, binary complex of BMP-2 bound to immobilized BMPR-IAECD (formed on the biosensor) (UniProt P12643 283-396; P36894 24-152) (assay: SPR; BMPR-IAECD immobilised; perfusion with 200 nM BMP-2 for 300 s to form the binary complex, then ActR-IIBECD as analyte at 1 to 50 uM for 120 s; apparent KD from the dose dependence of equilibrium binding, Scatchard analysis). Conditions: both partners purified.
T4 construct: as the chain of Dm4; as the chain of Dm2; also called BMP-2 in complex with immobilized BMPR-IAECD; binary BMP-2:BMPR-IAECD complex; source: formed on the biosensor by perfusion of immobilized BMPR-IAECD with 200nM BMP-2; copies: 2 +

| Kd [µM] | Binder |
| --- | --- |
| 9 | B1 |

Each binder was assayed against T5, glycosylated BMP-2 expressed in CHO cells (UniProt P12643 283-396, glycosylated; biotin (biotinylated for the biosensor; site not stated)) (assay: SPR; BIACORE 2000; biotinylated ligand on a streptavidin-modified CM5 chip (about 200 RU); receptor ectodomain as analyte at 1, 2, 3, 5, 10, 20 and 50 uM; HBS500 (10 mM HEPES pH 7.4, 500 mM NaCl, 3.4 mM EDTA, 0.005% P20); apparent KD from the dose dependence of equilibrium binding). Conditions: both partners purified.
T5 construct: bone morphogenetic protein 2 (BMP-2), mature ligand; also called BMP-2 (CHO cells, R&D Systems); source: bought: R&D Systems (CHO cells)

| rel. KD (against wildtype ActR-IIBECD on the same ligand) [fold] | Binder |
| --- | --- |
| 61 | B2 |
| 8.4 | B3 |
| 6.4 | B4 |
| 7.9 | B5 |
| 6.1 | B6 |
| 1 | B7 |
| 9.6 | B8 |
| 1.3 | B9 |
| 11 | B10 |

What follows are binders tested against B11 in the same assay as above. Conditions: both partners purified.

| rel. KD (against wildtype ActR-IIBECD on the same ligand) [fold] | Binder |
| --- | --- |
| 49 | B2 |
| 3.3 | B3 |
| 6.4 | B4 |
| 19 | B5 |
| 0.3 | B6 |
| 1.8 | B7 |
| 6.7 | B8 |
| 1 | B9 |
| 14 | B10 |

Each binder was assayed against T1, activin A (Sf9 cells) in the same assay as above. Conditions: both partners purified.

| rel. KD (against wildtype ActR-IIBECD on the same ligand) [fold] | Binder |
| --- | --- |
| 290 | B2 |
| 2.9 | B3 |
| 24 | B4 |
| 2510 | B5 |
| 0.7 | B6 |
| 1 | B7 |
| 8.6 | B8 |
| 1.1 | B9 |
| 2.7 | B10 |

The binders below were run against T6, ActR-II receptor ectodomain (UniProt P27037 20-135) in the same assay as above. Conditions: both partners purified.
T6 construct: activin receptor type II (ActR-II), extracellular domain; also called ActR-IIECD; source: expressed and purified as described earlier [28]

| Kd [µM] | Binder |
| --- | --- |
| 0.43 | B11 |

Biological target: B11
Test: as above
Conditions: both partners purified
Remark: another data set of the same source

| Kd [µM] | Binder |
| --- | --- |
| 32 | B12 |
